Source: US20240392002A1 (EXELIXIS, published 2024)
Substitutions are numbered along the chain they refer to. Names and notes keep the numbering of the source.

B1: I2C-15 IgG1 (antibody, V domains shown)
VH: EVQLVESGGGLVQPGGSLRLSCAASGFTFSSYFIHWVRQAPGKGLEWVALIYPDTDDTYYADSVKGRFTISADTSKNTAYLQMNSLRAEDTAVYYCARYGYLGVGAFDYWGQGTLVTVSS
VL: DIQMTQSPSSLSASVGDRVTITCRASQSVSSAVAWYQQKPGKAPKLLIYSASSLYSGVPSRFSGSRSGTDFTLTISSLQPEDFATYYCQQLYWTPGTFGQGTKVEIK
notes: human IgG1
B2: I2A-20 IgG1 (antibody, V domains shown)
VH: EVQLVESGGGLVQPGGSLRLSCAASGFTFSDYGIHWVRQAPGKGLEWVAEIDSWLGYTYYADSVKGRFTISADTSKNTAYLQMNSLRAEDTAVYYCARSPYHYLYYGLDYWGQGTLVTVSS
VL: B1 VL with Y92S, W93S, T94S, P95L
notes: human IgG1
B3: I2A-16 IgG1 (antibody, V domains shown)
VH: EVQLVESGGGLVQPGGSLRLSCAASGFTFSGYFIHWVRQAPGKGLEWVAAIFPYRGGTSYADSVKGRFTISADTSKNTAYLQMNSLRAEDTAVYYCARGGVSPGGFDYWGQGTLVTVSS
VL: B1 VL with L91Y, W93L, T94Y
notes: human IgG1
B4: I2C-17 IgG1 (antibody, V domains shown)
VH: EVQLVESGGGLVQPGGSLRLSCAASGFTFSDYFIHWVRQAPGKGLEWVAYIYPASGGTCYADSVKGRFTISADTSKNTAYLQMNSLRAEDTAVYYCARGYIPHMAALDYWGQGTLVTVSS
VL: B1 VL with L91Y, T94W
notes: human IgG1
B5: I2C-24 IgG1 (antibody, V domains shown)
VH: EVQLVESGGGLVQPGGSLRLSCAASGFTFSRYYIHWVRQAPGKGLEWVADIDSYGGFTYYADSVKGRFTISADTSKNTAYLQMNSLRAEDTAVYYCARAHRFLQGGYVLDYWGQGTLVTVSS
VL: B1 VL with L91Y, Y92S, T94G, P95L, G96W
notes: human IgG1
B6: I2C-12 IgG1 (antibody, V domains shown)
VH: EVQLVESGGGLVQPGGSLRLSCAASGFTFSSYFIHWVRQAPGKGLEWVAAIHPAFSFTYYADSVKGRFTISADTSKNTAYLQMNSLRAEDTAVYYCARPRLSSAVVLDYWGQGTLVTVSS
VL: B1 VL with L91G, W93Y, T94F
notes: human IgG1
B7: I2A-14 IgG1 (antibody, V domains shown)
VH: EVQLVESGGGLVQPGGSLRLSCAASGFTFDSYVIHWVRQAPGKGLEWVAYIFSFGGYTYYADSVKGRFTISADTSKNTAYLQMNSLRAEDTAVYYCARSPYGTFALDYWGQGTLVTVSS
VL: B1 VL with L91Y, W93Y
notes: human IgG1
B8: I2A-1 IgG1 (antibody, V domains shown)
VH: EVQLVESGGGLVQPGGSLRLSCAASGFTFSSYFIHWVRQAPGKGLEWVAAIYPEGGYTYYADSVKGRFTISADTSKNTAYLQMNSLRAEDTAVYYCARDYKYVGALDYWGQGTLVTVSS
VL: B1 VL with L91Y, W93Y, T94F
notes: human IgG1
B9: I2C-16 IgG1 (antibody, V domains shown)
VH: EVQLVESGGGLVQPGGSLRLSCAASGFTFSSYWIHWVRQAPGKGLEWVAAIHPSGSYTYYADSVKGRFTISADTSKNTAYLQMNSLRAEDTAVYYCARVGLLVTSVMDYWGQGTLVTVSS
VL: B1 VL with L91Y, W93Y, T94F
notes: human IgG1
B10: I2C-11 IgG1 (antibody, V domains shown)
VH: B8 VH with S30G, Y52F, E54A, D99Y, Y100G, K101S, Y102M, V103G, L106F
VL: B1 VL with L91Y, T94F
notes: human IgG1

Biological target: T1, ROR1 Ig-like domain (human, UniProt Q01973 42-147)
T1 construct: also called Acro Cat. No. RO1-H5221
Test: BLI, IgG1 on biosensor, soluble ROR1 domain
Text: (§1) To measure binding affinity in ROR binder discovery campaigns, the VL and VH domains identified in the phage screen described above were formatted into a bivalent monospecific native human full-length IgG1 architecture and immobilized to a biosensor on an Octet (Pall ForteBio) biolayer interferometer. Soluble ROR antigens, including the extracellular domains of ROR1 (Acro Cat. No. RO1-H522γ) and ROR2 (Acro Cat. No. R02-H52E5), as well as the individual ROR1 Frizzled (Acro Cat. No. RO1-H5222), Ig-like (Acro Cat. No. RO1-H5221), and Kringle (Acro Cat. No. RO1-H5223) domains, were then added to the system and binding measured.
(§2) ROR binding candidates, formatted in the bivalent monospecific native human full-length IgG1 architecture, were further characterized for binding to ROR1 and/or ROR2. […] ROR binding candidates were also characterized for their binding to specific ROR1 domains.

T1 sequence (Q01973 42-147): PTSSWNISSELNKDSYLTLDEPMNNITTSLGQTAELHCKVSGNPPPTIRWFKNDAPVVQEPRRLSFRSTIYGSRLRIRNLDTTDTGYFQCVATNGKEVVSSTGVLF

Row | binding result | Binder
1 | binds | B1
2 | binds | B2
3 | binds | B3
4 | binds | B4
5 | binds | B5
6 | binds | B6
7 | binds | B7
8 | binds | B8
9 | binds | B9
10 | binds | B10

Biological target: T2, extracellular domain of human ROR1 (human, UniProt Q01973 30-406)
T2 construct: bought protein; biotinylated in the bivalent assay format; also called Acro Cat. No. RO1-H522y
Test: BLI, IgG1 on biosensor, soluble ROR ectodomain
Text: as §1, §2

T2 sequence (Q01973 30-406 limits assumed): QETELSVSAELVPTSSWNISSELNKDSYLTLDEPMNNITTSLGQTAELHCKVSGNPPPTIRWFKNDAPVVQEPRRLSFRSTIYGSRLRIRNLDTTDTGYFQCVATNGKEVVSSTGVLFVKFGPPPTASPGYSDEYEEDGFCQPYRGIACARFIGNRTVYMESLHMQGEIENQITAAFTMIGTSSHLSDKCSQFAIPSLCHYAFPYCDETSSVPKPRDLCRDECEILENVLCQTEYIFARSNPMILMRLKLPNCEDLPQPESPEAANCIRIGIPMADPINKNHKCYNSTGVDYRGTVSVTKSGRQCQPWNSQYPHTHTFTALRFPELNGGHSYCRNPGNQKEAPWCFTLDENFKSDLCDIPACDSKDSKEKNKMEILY

Row | binding result | Binder
11 | binds | B1
12 | binds | B2
13 | binds | B3
14 | binds | B4
15 | binds | B5
16 | binds | B6
17 | binds | B7
18 | binds | B8
19 | binds | B9
20 | binds | B10

Biological target: T3, extracellular domain of human ROR2 (human, UniProt Q01974 34-403)
T3 construct: bought protein; biotinylated in the bivalent assay format; also called Acro Cat. No. RO2-H52E5
Test: BLI, IgG1 on biosensor, soluble ROR ectodomain
Text: as §1, §2

T3 sequence (Q01974 34-403 limits assumed): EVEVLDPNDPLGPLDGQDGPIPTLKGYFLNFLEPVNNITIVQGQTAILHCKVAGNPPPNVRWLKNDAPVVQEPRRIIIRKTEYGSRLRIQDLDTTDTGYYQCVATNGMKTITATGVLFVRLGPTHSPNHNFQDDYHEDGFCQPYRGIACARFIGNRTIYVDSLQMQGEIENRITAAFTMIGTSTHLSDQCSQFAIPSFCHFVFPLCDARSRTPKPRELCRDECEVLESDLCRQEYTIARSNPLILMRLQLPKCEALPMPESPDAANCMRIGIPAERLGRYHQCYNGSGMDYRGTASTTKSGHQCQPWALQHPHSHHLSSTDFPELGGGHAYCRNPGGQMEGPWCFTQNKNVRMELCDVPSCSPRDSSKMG

Row | binding result | Binder
21 | binds | B1
22 | no binding | B2
23 | binds | B3
24 | binds | B4
25 | binds | B5
26 | binds | B6
27 | binds | B7
28 | binds | B8
29 | binds | B9
30 | binds | B10
